Assay results from patent US20150344540A1, “NOVEL GLP-1 RECEPTOR AGONISTS WITH CHOLESTEROL EFFLUX ACTIVITY” (NOVO NORDISK A/S, priority 2012, published 2015).
Where no end group is shown, it is not given here. [ ]: non-standard residue; d: D form. Aib = CC(C)(N)C(=O)O

These binders were tested against human GLP-1 receptor (human, UniProt P43220) (assay: cell-based or functional assay).

| Binder | CRE luciferase EC50, 0% HSA [nM] | CRE luciferase EC50, 1% HSA [nM] |
| --- | --- | --- |
| HAEGTFTSDVSSYLEEEAVKEFIAWLVEKVKEFL-NH2 [[Glu22,Glu23,Val25,Glu34,Lys35,Val36,Lys37]-GLP-1-(7-37)-peptidyl-Glu-Phe-Leu amide] | 0.299 | 0.114 |
| H[Aib]EGTFTSDVSSYLEEEAVKEFIAWLVEKVKEF-NH2 [[Aib8,Glu22,Glu23,Val25,Glu34,Lys35,Val36,Lys37]-GLP-1-(7-37)-peptidyl-Glu-Phe amide] | 0.029 | 0.012 |
| HADGTLTSDISSYLEGEAVKEFIAWLVEK[Aib]KEFL-NH2 [[Asp9,Leu12,Ile16,Glu23,Val25,Glu34,Lys35,Aib36,Lys37]-GLP-1-(7-37)-peptidyl-Glu-Phe-Leu amide] | 0.222 | 0.062 |
| H[Aib]EGTFTSDVSSYLEEEAVKEFIAWLVEKVKEFL-NH2 (N-terminus assumed; SMILES CC[C@H](C)[C@H](NC(=O)[C@H](Cc1ccccc1)NC(=O)[C@H](CCC(=O)O)NC(=O)[C@H](CCCCN)NC(=O)[C@@H](NC(=O)[C@H](C)NC(=O)[C@H](CCC(=O)O)NC(=O)[C@H](CCC(=O)O)NC(=O)[C@H](CCC(=O)O)NC(=O)[C@H](CC(C)C)NC(=O)[C@H](Cc1ccc(O)cc1)NC(=O)[C@H](CO)NC(=O)[C@H](CO)NC(=O)[C@@H](NC(=O)[C@H](CC(=O)O)NC(=O)[C@H](CO)NC(=O)[C@@H](NC(=O)[C@H](Cc1ccccc1)NC(=O)[C@@H](NC(=O)CNC(=O)[C@H](CCC(=O)O)NC(=O)C(C)(C)NC(=O)[C@@H](N)Cc1c[nH]cn1)[C@@H](C)O)[C@@H](C)O)C(C)C)C(C)C)C(=O)N[C@@H](C)C(=O)N[C@@H](Cc1c[nH]c2ccccc12)C(=O)N[C@@H](CC(C)C)C(=O)N[C@H](C(=O)N[C@@H](CCC(=O)O)C(=O)N[C@@H](CCCCN)C(=O)N[C@H](C(=O)N[C@@H](CCCCN)C(=O)N[C@@H](CCC(=O)O)C(=O)N[C@@H](Cc1ccccc1)C(=O)N[C@@H](CC(C)C)C(N)=O)C(C)C)C(C)C) [[Aib8,Glu22,Glu23,Val25,Glu34,Lys35,Val36,Lys37]-GLP-1-(7-37)-peptidyl-Glu-Phe-Leu amide] | 0.116 | 0.034 |
| HAEGTFTSDVSSYLEGQAAKEFIAWLVEHVKEFL-NH2 [[Glu34,His35,Val36,Lys37]-GLP-1-(7-37)-peptidyl-Glu-Phe-Leu amide] | 0.103 | 0.024 |
| HGEGTFTSDVSSYLEEEAVKEFIAWLVEKVKEFL-NH2 [[Gly8,Glu22,Glu23,Val25,Glu34,Lys35,Val36,Lys37]-GLP-1-(7-37)-peptidyl-Glu-Phe-Leu amide] | 0.974 | 0.302 |
| HAEGTFTSDVSSYLEGEAVKEFIAWLVEKVKEFLEK [[Glu23,Val25,Glu34,Lys35,Val36,Lys37]-GLP-1-(7-37)-peptidyl-Glu-Phe-Leu-Glu-Lys] | 0.098 | 0.031 |
| HAEGTFTSDVSSYLEGQAAKEFIAWLVEKVKEFLDK [[Glu34,Lys35,Val36,Lys37]-GLP-1-(7-37)-peptidyl-Glu-Phe-Leu-Asp-Lys] | 0.045 | 0.012 |
| HAEGTFTSDVSSYLEGQAAKEFIAWLVEGVKEFLEK [[Glu34,Val36,Lys37]-GLP-1-(7-37)-peptidyl-Glu-Phe-Leu-Glu-Lys] | 0.085 | 0.023 |
| HAEGTFTSDVSSYLEGQAAKEFIAWLVEKVKEFLEK [[Glu34,Lys35,Val36,Lys37]-GLP-1-(7-37)-peptidyl-Glu-Phe-Leu-Glu-Lys] | 0.03 | 0.011 |
| HAEGTFTSDVSSYLEGEAVREFIAWLVHRVREFLEK [[Glu23,Val25,Arg26,His34,Arg35,Val36,Arg37]-GLP-1-(7-37)-peptidyl-Glu-Phe-Leu-Glu-Lys] | 0.039 | 0.014 |
| HAEGTFTSDVSSYLEGQAAKEFIAWLVEKVKEFLER [[Glu34,Lys35,Val36,Lys37]-GLP-1-(7-37)-peptidyl-Glu-Phe-Leu-Glu-Arg] | 0.034 | 0.011 |
| H-HAEGTFTSDVSSYLEGQAAKEFIAWLVEKVGEFLEK [[Glu34,Lys35,Val36]-GLP-1-(7-37)-peptidyl-Glu-Phe-Leu-Glu-Lys] | 0.041 | 0.013 |
| HAEGTFTSDVSSYLEGQAAKEFIAWLVEKVHEFL-NH2 [[Glu34,Lys35,Val36,His37]-GLP-1-(7-37)-peptidyl-Glu-Phe-Leu amide] | 0.107 | 0.03 |
| HGEGTFTSDVSSYLEEEAVKEFIAWLVEKVKEF-NH2 [[Gly8,Glu22,Glu23,Val25,Glu34,Lys35,Val36,Lys37]-GLP-1-(7-37)-peptidyl-Glu-Phe amide] | 0.104 | 0.027 |
| HAEGTFTSDVSSYLEEEAVKEFIAWLVEKVKEF-NH2 [[Glu22,Glu23,Val25,Glu34,Lys35,Val36,Lys37]-GLP-1-(7-37)-peptidyl-Glu-Phe amide] | 0.02 | 0.01 |
| HAEGTFTSDVSSYLEGQAAKEFIAWLVEKVKEFY-NH2 [[Glu34,Lys35,Val36,Lys37]-GLP-1-(7-37)-peptidyl-Glu-Phe-Tyr amide] | 0.037 | 0.014 |
| H[Aib]EGTFTSDVSSYLEGEAVKEFIAWLVEK[Aib]K-NH2 (N-terminus assumed; SMILES CC[C@H](C)[C@H](NC(=O)[C@H](Cc1ccccc1)NC(=O)[C@H](CCC(=O)O)NC(=O)[C@H](CCCCN)NC(=O)[C@@H](NC(=O)[C@H](C)NC(=O)[C@H](CCC(=O)O)NC(=O)CNC(=O)[C@H](CCC(=O)O)NC(=O)[C@H](CC(C)C)NC(=O)[C@H](Cc1ccc(O)cc1)NC(=O)[C@H](CO)NC(=O)[C@H](CO)NC(=O)[C@@H](NC(=O)[C@H](CC(=O)O)NC(=O)[C@H](CO)NC(=O)[C@@H](NC(=O)[C@H](Cc1ccccc1)NC(=O)[C@@H](NC(=O)CNC(=O)[C@H](CCC(=O)O)NC(=O)C(C)(C)NC(=O)[C@@H](N)Cc1c[nH]cn1)[C@@H](C)O)[C@@H](C)O)C(C)C)C(C)C)C(=O)N[C@@H](C)C(=O)N[C@@H](Cc1c[nH]c2ccccc12)C(=O)N[C@@H](CC(C)C)C(=O)N[C@H](C(=O)N[C@@H](CCC(=O)O)C(=O)N[C@@H](CCCCN)C(=O)NC(C)(C)C(=O)N[C@@H](CCCCN)C(N)=O)C(C)C) [[Aib8,Glu23,Val25,Glu34,Lys35,Aib36,Lys37]-GLP-1-(7-37)-peptide amide] | 0.015 | 0.004 |
| H[Aib]EGTFTSDLSKQMEGEAVRLFIEWLKNK[Aib]LEFLELL-NH2 (N-terminus assumed; SMILES CC[C@H](C)[C@H](NC(=O)[C@H](Cc1ccccc1)NC(=O)[C@H](CC(C)C)NC(=O)[C@H](CCCNC(=N)N)NC(=O)[C@@H](NC(=O)[C@H](C)NC(=O)[C@H](CCC(=O)O)NC(=O)CNC(=O)[C@H](CCC(=O)O)NC(=O)[C@H](CCSC)NC(=O)[C@H](CCC(N)=O)NC(=O)[C@H](CCCCN)NC(=O)[C@H](CO)NC(=O)[C@H](CC(C)C)NC(=O)[C@H](CC(=O)O)NC(=O)[C@H](CO)NC(=O)[C@@H](NC(=O)[C@H](Cc1ccccc1)NC(=O)[C@@H](NC(=O)CNC(=O)[C@H](CCC(=O)O)NC(=O)C(C)(C)NC(=O)[C@@H](N)Cc1c[nH]cn1)[C@@H](C)O)[C@@H](C)O)C(C)C)C(=O)N[C@@H](CCC(=O)O)C(=O)N[C@@H](Cc1c[nH]c2ccccc12)C(=O)N[C@@H](CC(C)C)C(=O)N[C@@H](CCCCN)C(=O)N[C@@H](CC(N)=O)C(=O)N[C@@H](CCCCN)C(=O)NC(C)(C)C(=O)N[C@@H](CC(C)C)C(=O)N[C@@H](CCC(=O)O)C(=O)N[C@@H](Cc1ccccc1)C(=O)N[C@@H](CC(C)C)C(=O)N[C@@H](CCC(=O)O)C(=O)N[C@@H](CC(C)C)C(=O)N[C@@H](CC(C)C)C(N)=O) [[Aib2,Gly16,Lys29,Aib30,Leu31,Glu32,Phe33,Leu34,Glu35,Leu36,Leu37]-Exendin-4-(1-37)-peptide amide] | 1.51 | 0.552 |
| H[Aib]EGTFTSDVSSYLEGEAVKEFIAWLVG[Aib]KEFL-NH2 (N-terminus assumed; SMILES CC[C@H](C)[C@H](NC(=O)[C@H](Cc1ccccc1)NC(=O)[C@H](CCC(=O)O)NC(=O)[C@H](CCCCN)NC(=O)[C@@H](NC(=O)[C@H](C)NC(=O)[C@H](CCC(=O)O)NC(=O)CNC(=O)[C@H](CCC(=O)O)NC(=O)[C@H](CC(C)C)NC(=O)[C@H](Cc1ccc(O)cc1)NC(=O)[C@H](CO)NC(=O)[C@H](CO)NC(=O)[C@@H](NC(=O)[C@H](CC(=O)O)NC(=O)[C@H](CO)NC(=O)[C@@H](NC(=O)[C@H](Cc1ccccc1)NC(=O)[C@@H](NC(=O)CNC(=O)[C@H](CCC(=O)O)NC(=O)C(C)(C)NC(=O)[C@@H](N)Cc1c[nH]cn1)[C@@H](C)O)[C@@H](C)O)C(C)C)C(C)C)C(=O)N[C@@H](C)C(=O)N[C@@H](Cc1c[nH]c2ccccc12)C(=O)N[C@@H](CC(C)C)C(=O)N[C@H](C(=O)NCC(=O)NC(C)(C)C(=O)N[C@@H](CCCCN)C(=O)N[C@@H](CCC(=O)O)C(=O)N[C@@H](Cc1ccccc1)C(=O)N[C@@H](CC(C)C)C(N)=O)C(C)C) [[Aib8,Glu23,Val25,Aib36,Lys37]-des-Lys34-GLP-1-(7-37)-peptidyl-Glu-Phe-Leu amide] | 0.01 | 0.004 |
| HAEGTYTNDVTEYLEGEAVKEFIAWLVEK[Aib]KEFL-NH2 (N-terminus assumed; SMILES CC[C@H](C)[C@H](NC(=O)[C@H](Cc1ccccc1)NC(=O)[C@H](CCC(=O)O)NC(=O)[C@H](CCCCN)NC(=O)[C@@H](NC(=O)[C@H](C)NC(=O)[C@H](CCC(=O)O)NC(=O)CNC(=O)[C@H](CCC(=O)O)NC(=O)[C@H](CC(C)C)NC(=O)[C@H](Cc1ccc(O)cc1)NC(=O)[C@H](CCC(=O)O)NC(=O)[C@@H](NC(=O)[C@@H](NC(=O)[C@H](CC(=O)O)NC(=O)[C@H](CC(N)=O)NC(=O)[C@@H](NC(=O)[C@H](Cc1ccc(O)cc1)NC(=O)[C@@H](NC(=O)CNC(=O)[C@H](CCC(=O)O)NC(=O)[C@H](C)NC(=O)[C@@H](N)Cc1c[nH]cn1)[C@@H](C)O)[C@@H](C)O)C(C)C)[C@@H](C)O)C(C)C)C(=O)N[C@@H](C)C(=O)N[C@@H](Cc1c[nH]c2ccccc12)C(=O)N[C@@H](CC(C)C)C(=O)N[C@H](C(=O)N[C@@H](CCC(=O)O)C(=O)N[C@@H](CCCCN)C(=O)NC(C)(C)C(=O)N[C@@H](CCCCN)C(=O)N[C@@H](CCC(=O)O)C(=O)N[C@@H](Cc1ccccc1)C(=O)N[C@@H](CC(C)C)C(N)=O)C(C)C) | 0.202 | 0.104 |
